Values quoted from earlier work, collected in article PMC6933782 (ACS Omega, 2019).

Conditions: ref 26 (Jagoda et al., 2015)

## ^18F-labeled RSA: ^18F-labeled rat serum albumin (RSA), literature, ref 26
PET, up to stated time postinjection
  retention of uptake in the heart and peripheral vasculature: up to 2.5 h
  uptake in PET: uptake in the heart and peripheral vasculature
